From patent US20240317834A1, “COMPOSITIONS AND METHODS FOR NEUROLOGICAL DISEASES” (CODA BIOTHERAPEUTICS, INC., priority 2020, published 2024)

Test system: Lenti-X 293T cells
Assay: YFP fluorescence quenching anion reporter plate reader assay of engineered receptors stimulated with acetylcholine or a non-native ligand
Format: cell-based
Procedure, shortened: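 Lenti-X 293T cells carrying a YFP anion reporter were transiently transfected with channel DNA and assayed the next day in HEPES-buffered ECS at pH 7.2. Ligand (acetylcholine or non-native ligand) was added in NaI-substituted ECS. Percent quench was the mean of the last 10 s relative to the 15 s pre-addition baseline.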

B1: CODA945: engineered chimeric LGIC receptor, Q139E in SEQ ID NO: 33 (protein)
chain: MRCSPGGVWLALAASLLHVSLQGEFQRKLYKELVKNYNPLERPVANDSQPLTVYFSLSLLQIMDVDEKNQVLTTNIWLQMSWTDHYLQWNVSEYPGVKTVRFPDGQIWKPDILLYNSADERFDATFHTNVLVNSSGHCEYLPPGIFKSSCPMDLKNFPMDVQTCKLKFGSWSYGGWSLDLQMQEADISGYIPNGEWDLVGIPGKRSERFYECCKEPYPDVTFTVTMRRRMGYYLIQMYIPSLLIVILSWISFWINMDAAPARVGLGITTVLTMTTQSSGSRASLPKVSYVKAIDIWMAVCLLFVFSALLEYAAVNFVSRQHKELLRFRRKRRHHKSPMLNLFQEDEAGEGRFNFSAYGMGPACLQAKDGISVKGANNSNTTNPPPAPSKSPEEMRKLFIQRAKKIDKISRIGFPMAFLIFNMFYWIIYKIVRREDVHNQ
modifications: synthetic sequence of chimeric LGIC
Question: For B1, which “YFP fluorescence quenching using CNL001” value (1 nM CNL001, first column) is on record?
Answer: 6.65%

Question: What about the “YFP fluorescence quenching using CNL001” value (1 nM CNL001, second column) of the same molecule?
Answer: 13.512%

Question: What about the “YFP fluorescence quenching using TC-5619/Bradanicline” value (3 nM brd) of the same molecule?
Answer: 14.15%

Question: What about the “YFP fluorescence quenching using Varenicline” value (3 nM var, first column) of the same molecule?
Answer: 8.207

Question: And the “YFP fluorescence quenching using Varenicline” value (3 nM var, second column)?
Answer: 7.835

Question: What about the “YFP fluorescence quenching using CNL001” value (10 nM CNL001, first column) of the same molecule?
Answer: 78.678%

Question: And the “YFP fluorescence quenching using CNL001” value (10 nM CNL001, second column)?
Answer: 82.723%

Question: What about the “YFP fluorescence quenching using TC-5619/Bradanicline” value (30 nM brd) of the same molecule?
Answer: 78.18%

Question: And the “YFP fluorescence quenching using Facinicline” value (30 nM fac)?
Answer: −7.16

Question: What about the “YFP fluorescence quenching using Varenicline” value (30 nM var, first column) of the same molecule?
Answer: 9.509

Question: What about the “YFP fluorescence quenching using Varenicline” value (30 nM var, second column) of the same molecule?
Answer: 10.204

Question: What about the “YFP fluorescence quenching using CNL001” value (50 nM CNL001, first column) of the same molecule?
Answer: 84.91%

Question: What about the “YFP fluorescence quenching using CNL001” value (50 nM CNL001, second column) of the same molecule?
Answer: 84.849%

Question: And the “YFP fluorescence quenching using ABT-126” value (50 nM abt)?
Answer: −8.27%

Question: And the “YFP fluorescence quenching using CNL001” value (100 nM CNL001, first column)?
Answer: 85.046%

Question: And the “YFP fluorescence quenching using CNL001” value (100 nM CNL001, second column)?
Answer: 84.642%

Question: And the “YFP fluorescence quenching using CNL002” value (100 nM CNL002)?
Answer: 60.5%

Question: And the “YFP fluorescence quenching using ABT-126” value (100 nM abt)?
Answer: 4.76%

Question: What about the “YFP fluorescence quenching using AZD-0328” value (100 nM azd0328) of the same molecule?
Answer: −5.79%

Question: What about the “YFP fluorescence quenching using ABT-126” value (300 nM abt) of the same molecule?
Answer: 30.88%

Question: What about the “YFP fluorescence quenching using AZD-0328” value (300 nM azd0328) of the same molecule?
Answer: 58.47%

Question: What about the “YFP fluorescence quenching using TC-5619/Bradanicline” value (300 nM brd) of the same molecule?
Answer: 76.8%

Question: And the “YFP fluorescence quenching using Facinicline” value (300 nM fac)?
Answer: 71.17

Question: What about the “YFP fluorescence quenching using Varenicline” value (300 nM var, first column) of the same molecule?
Answer: 9.818

Question: And the “YFP fluorescence quenching using Varenicline” value (300 nM var, second column)?
Answer: 12.539

Question: What about the “YFP fluorescence quenching using Varenicline” value (500 nM var, first column) of the same molecule?
Answer: 16.762

Question: What about the “YFP fluorescence quenching using Varenicline” value (500 nM var, second column) of the same molecule?
Answer: 15.21

Question: What about the “YFP fluorescence quenching using CNL001” value (1 uM CNL001, first column) of the same molecule?
Answer: 85.493%

Question: What about the “YFP fluorescence quenching using CNL001” value (1 uM CNL001, second column) of the same molecule?
Answer: 86.071%

Question: What about the “YFP fluorescence quenching using CNL002” value (1 uM CNL002) of the same molecule?
Answer: 75.41%

Question: What about the “YFP fluorescence quenching using ABT-126” value (1 uM abt) of the same molecule?
Answer: 60.66%

Question: And the “YFP fluorescence quenching using TC-6987” value (1 uM tc6987)?
Answer: −0.97

Question: What about the “YFP fluorescence quenching using Varenicline” value (1 uM var, first column) of the same molecule?
Answer: 48.292

Question: And the “YFP fluorescence quenching using Varenicline” value (1 uM var, second column)?
Answer: 54.096

Question: What about the “YFP fluorescence quenching using TC-6987” value (10 uM tc6987) of the same molecule?
Answer: 21.53

Question: What about the “YFP fluorescence quenching using CNL002” value (30 uM CNL002) of the same molecule?
Answer: 77.46%

Question: And the “YFP fluorescence quenching using AZD-0328” value (30 uM azd0328)?
Answer: 66.57%

Question: What about the “YFP fluorescence quenching using Facinicline” value (30 uM fac) of the same molecule?
Answer: 72.14

Question: What about the “YFP fluorescence quenching using TC-6987” value (500 uM tc6987) of the same molecule?
Answer: 7.39

Question: And the “percent quench of YFP fluorescence, 30 nM TC-6683” value (TC-6683 30 nM)?
Answer: −26.47%

Question: What about the “percent quench of YFP fluorescence, 300 nM TC-6683” value (TC-6683 300 nM) of the same molecule?
Answer: −18.62%

Question: What about the “percent quench of YFP fluorescence, 3 uM TC-6683” value (TC-6683 3 uM) of the same molecule?
Answer: −13.39%

Question: And the “percent quench of YFP fluorescence, 30 uM TC-6683” value (TC-6683 30 uM)?
Answer: −16.6%

Question: What about the “percent quench of YFP fluorescence, 100 uM TC-6683” value (TC-6683 100 uM) of the same molecule?
Answer: −12.89%

Question: What about the “percent quench of YFP fluorescence, 10 uM ach” value (acetylcholine 10 uM) of the same molecule?
Answer: −1.25%

Question: What about the “percent quench of YFP fluorescence, 100 uM ach” value (acetylcholine 100 uM) of the same molecule?
Answer: 71.21%

Question: And the “percent quench of YFP fluorescence, 1 mM ach” value (acetylcholine 1 mM)?
Answer: 71.79%

Question: And the “percent quench of YFP fluorescence, 3 mM ach” value (acetylcholine 3 mM)?
Answer: 76.04%
